Assay [1] concerns the target T1, human macrophage mannose receptor (human, UniProt P22897 19-1456).
T1 construct: whole, on cells; also called MR; MMR
T1 sequence (looked up): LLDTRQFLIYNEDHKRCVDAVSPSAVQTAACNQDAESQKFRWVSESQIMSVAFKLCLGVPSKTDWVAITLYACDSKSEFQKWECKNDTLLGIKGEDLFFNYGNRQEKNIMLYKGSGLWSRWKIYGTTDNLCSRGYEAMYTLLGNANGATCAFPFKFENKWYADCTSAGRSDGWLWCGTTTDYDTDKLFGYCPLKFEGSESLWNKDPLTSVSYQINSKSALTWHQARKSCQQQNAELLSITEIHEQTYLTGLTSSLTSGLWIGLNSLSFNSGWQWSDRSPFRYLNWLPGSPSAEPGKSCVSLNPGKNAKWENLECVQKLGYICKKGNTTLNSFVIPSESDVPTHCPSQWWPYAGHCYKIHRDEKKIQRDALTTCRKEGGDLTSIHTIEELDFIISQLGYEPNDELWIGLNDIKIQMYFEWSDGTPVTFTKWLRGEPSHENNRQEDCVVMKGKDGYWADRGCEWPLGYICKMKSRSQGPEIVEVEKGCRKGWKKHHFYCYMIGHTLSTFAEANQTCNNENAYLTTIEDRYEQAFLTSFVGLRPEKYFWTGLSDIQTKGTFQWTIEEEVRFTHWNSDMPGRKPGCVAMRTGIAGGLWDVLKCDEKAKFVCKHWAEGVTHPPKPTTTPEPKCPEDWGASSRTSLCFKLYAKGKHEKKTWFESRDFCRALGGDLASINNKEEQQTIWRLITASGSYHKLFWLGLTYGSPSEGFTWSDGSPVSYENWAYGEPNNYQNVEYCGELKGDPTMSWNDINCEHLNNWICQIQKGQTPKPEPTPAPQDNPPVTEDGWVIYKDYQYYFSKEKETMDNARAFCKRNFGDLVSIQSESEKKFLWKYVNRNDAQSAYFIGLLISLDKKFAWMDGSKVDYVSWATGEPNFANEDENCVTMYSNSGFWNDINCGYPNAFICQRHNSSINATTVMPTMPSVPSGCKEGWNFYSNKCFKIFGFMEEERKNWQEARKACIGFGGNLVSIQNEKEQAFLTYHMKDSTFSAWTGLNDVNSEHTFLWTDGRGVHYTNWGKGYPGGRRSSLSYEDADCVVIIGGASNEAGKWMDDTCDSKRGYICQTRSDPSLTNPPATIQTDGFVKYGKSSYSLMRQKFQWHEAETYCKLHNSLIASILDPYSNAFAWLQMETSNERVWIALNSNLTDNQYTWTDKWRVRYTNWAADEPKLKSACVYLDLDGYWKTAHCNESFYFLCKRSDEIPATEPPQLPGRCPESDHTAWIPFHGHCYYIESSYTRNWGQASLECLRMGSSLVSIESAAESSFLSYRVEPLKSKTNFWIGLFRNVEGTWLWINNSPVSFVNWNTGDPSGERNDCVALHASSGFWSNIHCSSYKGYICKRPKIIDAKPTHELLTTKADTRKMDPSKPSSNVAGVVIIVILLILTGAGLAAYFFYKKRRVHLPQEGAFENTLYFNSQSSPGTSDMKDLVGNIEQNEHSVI
The assay is described as follows: flow cytometry on cultured human DCs. The procedure: Monocyte-derived DCs were exposed either to B11 sfv-βhCG or βhCG-B11 in PBS-BSA buffer for 45 minutes at 37° C. and allowed to mature overnight in the presence of CD40L. Harvested DCs were then washed and stained with mouse anti-βhCG followed by goat anti-hu IgG (Fc)-PE conjugate. Stained cells were analyzed on a flow cytometer (BD-LSR). Approximately, 10,000 events were collected for each sample. Background autofluorescence and isotype matched antibody staining served as controls. Based on the mean fluorescence intensity (MFI) (data not shown), B11 sfv-βhCG binding to MR expressed on DC is similar to that of βhCG-B11.

The target of assay [2] is T1, human macrophage mannose receptor. The assay is described as follows: in situ staining of MR on human tissue cryosections (immunohistochemistry). From the text: Using the anti-MR antibody as a probe, in situ staining of MR on human dermal DCs and macrophages in section of various human tissues was examined. Human tissue cryosections were stained with anti-MR human antibody B11. DCs present in the dermal layer of the skin were clearly labeled (data not shown) with the B11 antibody. It is noted that there was binding to DCs in the dermal layer of skin. […] These studies have been repeated with the βhCG-B11 with identical results.

B1: βhCG-B11 construct (whole human anti-mannose receptor antibody B11 with βhCG fused to the CH3 end of the heavy chain) (antibody)
heavy: not shown
light: DIQMTQSPSSLSASVGDRVTITCRASQGISRWLAWYQQKPEKAPKSLIYAASSLQSGVPSRFSGSGSGTDFTLTISGLQPEDFATYYCQQYNSYPRTFGQGTKVEIK
notes: Antibody-antigen fusion expressed in CHO cells; also called B11-βhCG vaccine conjugate; B11-βhCG conjugate
On to B1, for which the binding result in assay [1] is recorded as “binds”.

B2: human monoclonal antibody B11 (anti-mannose receptor) (antibody, V domains shown)
VH: EVQLVQSGAEVKKPGESLRISCKGSGDSFTTYWIGWVRQMPGKGLEWMGIIYPGDSDTIYSPSFQGQVTISADKSISTAYLQWSSLKASDTAMYYCTRGDRGVDYWGQGTLVTVSS
VL: B1 light
notes: Fully human whole antibody with a kappa light chain; also called B11 mAb; anti-MR B11 HuMAb
In the case of B2, the binding result in assay [2] is given as “binds”.

B3: B11sfv-βhCG construct (single chain B11 antibody, VL and VH, with βhCG fused to the carboxy terminus) (scFv)
scFv: DIQMTQSPSSLSASVGDRVTITCRASQGISRWLAWYQQKPEKAPKSLIYAASSLQSGVPSRFSGSGSGTDFTLTISGLQPEDFATYYCQQYNSYPRTFGQGTKVEIKGGGGSGGGGSGGGGSEVQLVQSGAEVKKPGESLRISCKGSGDSFTTYWIGWVRQMPGKGLEWMGIIYPGDSDTIYSPSFQGQVTISADKSISTAYLQWSSLKASDTAMYYCTRGDRGVDYWGQGTLVTVSSGSTGGGGSSSKEPLRPRCRPINATLAVEKEGCPVCITVNTTICAGYCPTMTRVLQGVLPALPQVVCNYRDVRFESIRLPGCPRGVNPVVSYAVALSCQCALCRRSTTDCGGPKDHPLTCDDPRFQDSSSSKAPPPSLPSPSRLPGPSDTPILPQ
notes: also called B11 scfv-βhCG; pB11sfv-βhCG
For B3, in assay [1], the binding result was “binds”.

The values are drawn from patent US20090324622A1 (CELLDEX THERAPEUTICS, published 2009).
